The assay concerns the target T1, MuSK at the postsynaptic membrane of mouse neuromuscular junctions (levator auris longus muscle) (mouse, UniProt Q61006 22-868).
T1 construct: whole, on cells; Target in tissue immunostaining; also called mouse NMJs; MuSK at the NMJ
T1 sequence (looked up): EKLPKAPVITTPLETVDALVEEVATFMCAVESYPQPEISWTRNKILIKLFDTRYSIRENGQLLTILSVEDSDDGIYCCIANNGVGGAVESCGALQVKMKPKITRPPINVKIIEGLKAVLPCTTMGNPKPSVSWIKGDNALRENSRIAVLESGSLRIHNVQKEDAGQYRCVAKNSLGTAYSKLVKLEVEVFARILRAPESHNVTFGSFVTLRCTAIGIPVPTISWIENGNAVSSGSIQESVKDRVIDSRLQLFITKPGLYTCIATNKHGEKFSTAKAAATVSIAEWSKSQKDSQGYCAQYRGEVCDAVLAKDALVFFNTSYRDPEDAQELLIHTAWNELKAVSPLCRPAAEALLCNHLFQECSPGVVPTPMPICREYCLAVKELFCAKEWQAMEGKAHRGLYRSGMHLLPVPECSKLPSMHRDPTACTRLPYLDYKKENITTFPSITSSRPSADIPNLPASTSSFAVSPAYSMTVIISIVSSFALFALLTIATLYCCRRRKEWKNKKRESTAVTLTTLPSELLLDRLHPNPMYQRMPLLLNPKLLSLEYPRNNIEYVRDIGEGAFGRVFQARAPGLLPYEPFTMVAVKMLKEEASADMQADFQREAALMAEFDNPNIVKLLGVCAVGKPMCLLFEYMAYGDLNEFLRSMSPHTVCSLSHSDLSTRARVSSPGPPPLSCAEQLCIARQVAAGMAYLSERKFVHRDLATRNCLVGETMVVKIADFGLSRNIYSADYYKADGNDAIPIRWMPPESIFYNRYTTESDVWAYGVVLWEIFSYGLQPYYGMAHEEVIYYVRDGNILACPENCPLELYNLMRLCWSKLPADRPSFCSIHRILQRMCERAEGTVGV
In words: immunostaining of whole-mount mouse levator auris longus muscle. As for the experimental part: FIG. 6—anti-MuSK/Anti-HIV-b12 exchanged heterospecific IgG4 antibodies were generated using methods detailed in Labrijn, 2014, Nature Protocols and Genmab, Labrijn, 2013, PNAS, which were adjusted to IgG4. These antibodies were tested for MuSK binding in mouse neuromuscular junction (NMJ) in ex vivo levator auris longus muscle. Equivalent anti-MuSK homospecific antibodies were also tested in parallel. The data confirms that both heterospecific MuSK IgG4 antibodies (13-3B5/HIV IgG4 and 11-3F6/HIV IgG4) and homospecific MuSK IgG4 antibodies (13-3B5 IgG4 and 11-3F6 IgG4) bind to MuSK at the NMJ.
To determine the binding characteristics of the recombinant and medium produced antibodies we performed an epitope mapping ELISA as described previously (Huijbers et al., 2016). Truncated versions of the MuSK proteins were immobilized on maxisorp plates and exposed to either antibodies from the single cell cultures 1:10 or to recombinant antibodies. Recombinant antibodies were also used to immunostain mouse levator auris longus muscle overnight at 4° C. at 1:100. AChRs in synaptic regions were labelled with AlexaFluor488 conjugated alpha-bungarotoxin (Life technologies) and bound recombinant antibodies were detected with AlexaFluor594 conjugated goat anti-human IgG (Life technologies). Muscles were imaged on a Leica SP8 confocal laser-scanning microscope and analyzed using Las X software.

B1: recombinant 11-3F6 IgG4 (antibody, V domains shown)
VH: EVQLVESGGGLVKPGGSLRLSCAASGFTFSSYTMDWVRQAPGKGLEWVSSIGSNGDYIYYADSVRGRFTISRDNAKNSLYLQMNSLRPDDTADYYCARGQLAVAGTHFDYWGRGSLVTVSS
VL: DIQMTQSPSSLSASVGDRVTISCRASQKVNKYVNWYQQTPGKAPRLLIYAASTLQSGVPSRFSGSGSGANFTLTISGLQPEDFAIYFCQQSYSPLCTFGQGTKLEIK
notes: Variable regions cloned in an IgG4 backbone and expressed in HEK293-F cells; Bivalent and monospecific; also called homospecific 11-3F6 IgG4
For the molecule B1, the binding result was “binds”.

B2: recombinant 13-3B5 IgG4 (antibody, V domains shown)
VH: QVQLVQSGAVVAKPGASVQVSCKTSGYTFTGQYLHWVRQAPGQGLEWIGWINPSSGVTKFAEKFEGRATMTRDTSITTAYIDLRSLRSDDTATYYCATLSLGVYYVGMVAWGQGTLVTVSS
VL: SYELTQPPSVSVSPGQTATITCSGDGLAQQHVYWFQQRPGQAPLLIIYKDIERPSGIPERFSGSSSGTTAMLTISGVQAEDEADYYCQSGDRTATSVLFGGGTKMTVL
notes: Variable regions cloned in an IgG4 backbone and expressed in HEK293-F cells; Bivalent and monospecific; also called homospecific 13-3B5 IgG4; 13-365
For B2, the binding result is reported as “binds”.
